For 150 variants, ratio to parent results are on record in article PMC11480844 (2024).

B1: H2-Kb / Ed9 (parent complex)
chain 1: AQSVTQPDARVTVSEGASLQLRCKYSYFGTPYLFWYVQYPRQGLQLLLKYYPGDPVVQGVNGFEAEFSKSNSSFHLRKASVHWSDWAVYFCAVSITGGYKVVFGSGTRLLVSP
chain 2: DSGVVQSPRHIIKEKGGRSVLTCIPISGHSNVVWYQQTLGKELKFLIQHYEKVERDKGFLPSRFSVQQFDDYHSEMNMSALELEDSAMYFCASSPRQSDYTFGSGTRLLVI
chain 3: not shown
chain 4: IQKTPQIQVYSRHPPENGKPNILNCYVTQFHPPHIEIQMLKNGKKIPKVEMSDMSFSKDWSFYILAHTEFTPTETDTYACRVKHDSMAEPKTVYWDRDM
chain 5: SIINFEKL
B2: H2-Kb / B15 (parent complex)
chain 1: QQQVRQSPQSLTVWEGETAILNCSYENSAFDYFPWYQQFPGEGPALLISILSVSDKKEDGRFTIFFNKREKKLSLHIADSQPGDSATYFCAASAASNNRLTLGKGTQVVVLP
chain 2: DSGVVQSPRHIIKEKGGRSVLTCIPISGHSNVVWYQQTLGKELKFLIQHYEKVERDKGFLPSRFSVQQFDDYHSEMNMSALELEDSAMYFCASSRRADAEQFFGPGTRLTVL
chain 3: not shown
chain 4: B1 chain 4
chain 5: SIINFEKL
Note: test concentration or dose not given here.

In the first experiment the parent is B1. Nature of the experiment: % of reporter cells activated (NFAT-GFP), raw.
On to chain 5 S1E, for which the ratio to parent amounted to 0.0209.
Still for that read-out and setting: to chain 5 S1Q belongs 0.0362; to chain 5 S1H, 0.543.
Still for that read-out and setting: to chain 5 S1C belongs 0.147; to chain 5 S1N, 0.0383; to chain 5 S1T, 0.381.
Turning to chain 5 S1K, the ratio to parent turned out to be 0.424.
Still for that read-out and setting: the value for chain 5 S1Y was 0.802; that for chain 5 S1F was 0.245.
For chain 5 S1R, the ratio to parent came to 0.402.
Still for that read-out and setting: the value for chain 5 S1W was 0.126.
On the same count and under the same terms, to chain 5 S1G belongs 0.224.
chain 5 S1M: the ratio to parent is 0.0181.
Turning to chain 5 S1L, the ratio to parent amounted to 0.0324.
The same measure, in the same setting: to chain 5 S1A belongs 1.17.
The same measure, in the same setting: the value for chain 5 F5K was 1.09; that for chain 5 F5A was 1.33.
In the case of chain 5 F5H, the ratio to parent was 1.29.
With chain 5 F5T, the ratio to parent is 1.38.
Regarding chain 5 F5L, the ratio to parent was 1.36.
The same measure, in the same setting: the value for chain 5 F5C was 1.26; that for chain 5 F5P was 0.552; that for chain 5 F5G was 1.05.
Still for that read-out and setting: the value for chain 5 F5R was 1.31.
Still for that read-out and setting: the value for chain 5 F5V was 1.27; that for chain 5 F5Q was 1.33; that for chain 5 F5M was 1.32.
With chain 5 F5I, the ratio to parent is 1.14.
For chain 5 F5D, the ratio to parent stood at 0.945.
On the same count and under the same terms, to chain 5 F5W belongs 1.22; to chain 5 K7C, 0.432.
Regarding chain 5 K7F, the ratio to parent was 0.296.
chain 5 K7I: the ratio to parent stood at 0.919.
Consider chain 5 K7A, for which the ratio to parent amounted to 0.47.
Regarding chain 5 K7W, the ratio to parent was determined as 0.781.
Same read-out and setting: the value for chain 5 K7S was 0.969.
Still for that read-out and setting: to chain 5 K7Q belongs 0.798; to chain 5 K7G, 0.473.
Turning to chain 5 K7L, the ratio to parent worked out at 0.719.
Regarding chain 5 K7N, the ratio to parent came out at 0.332.
Take chain 5 K7D: the ratio to parent was determined as 0.294.
The same measure, in the same setting: the value for chain 5 K7V was 0.845.
Same read-out and setting: the value for chain 5 K7Y was 0.668.
The same measure, in the same setting: to chain 5 K7P belongs 0.525; to chain 5 K7R, 0.982.
Turning to chain 5 K7H, the ratio to parent is 0.723.
As to chain 5 I2T, the ratio to parent stood at 1.22.
The same measure, in the same setting: the value for chain 5 I2D was 1.21.
The same measure, in the same setting: to chain 5 I2P belongs 1.
Same read-out and setting: to chain 5 I2R belongs 1.12; to chain 5 I2M, 1.18; to chain 5 I2Y, 0.858.
Consider chain 5 I2L, for which the ratio to parent is 1.31.
Same read-out and setting: to chain 5 I2K belongs 1; to chain 5 I2C, 1.22.
Turning to chain 5 I2S, the ratio to parent worked out at 1.18.
The same measure, in the same setting: to chain 5 I2H belongs 0.854.
Regarding chain 5 I2N, the ratio to parent was found to be 0.905.
Still for that read-out and setting: the value for chain 5 I2A was 1.21.
Still for that read-out and setting: to chain 5 I2W belongs 0.799; to chain 5 I2G, 1.06; to chain 5 I2E, 1.11.
Take chain 5 I2V: the ratio to parent stood at 1.32.
On the same count and under the same terms, to chain 5 I3P belongs 0.819; to chain 5 I3N, 0.336.
Still for that read-out and setting: the value for chain 5 I3L was 1.03; that for chain 5 I3T was 0.43.
For the variant chain 5 I3Q, the ratio to parent is 0.728.
The same measure, in the same setting: to chain 5 I3W belongs 0.753.
Same read-out and setting: to chain 5 I3E belongs 0.56.
On the same count and under the same terms, the value for chain 5 I3S was 1.01.
With chain 5 I3V, the ratio to parent turned out to be 1.12.
Still for that read-out and setting: the value for chain 5 I3K was 0.907.
Regarding chain 5 I3H, the ratio to parent was 1.17.
Still for that read-out and setting: to chain 5 I3D belongs 0.484.
The same measure, in the same setting: to chain 5 I3F belongs 0.0133.
For the variant chain 5 I3M, the ratio to parent amounted to 0.914.
Same read-out and setting: to chain 5 I3R belongs 0.385.
On to chain 5 I3C, for which the ratio to parent stood at 0.633.
As for chain 5 I3G, the ratio to parent is 0.446.
Consider chain 5 N4C, for which the ratio to parent was found to be 0.0443.
Consider chain 5 N4K, for which the ratio to parent turned out to be 0.364.
chain 5 N4L: the ratio to parent was 0.608.
Take chain 5 N4R: the ratio to parent worked out at 0.572.
As to chain 5 N4G, the ratio to parent came to 0.0077.
The same measure, in the same setting: the value for chain 5 N4Y was 0.0572; that for chain 5 N4D was 0.832.
Still for that read-out and setting: to chain 5 N4M belongs 0.00718; to chain 5 N4I, 0.41; to chain 5 N4W, 0.0561.
On the same count and under the same terms, to chain 5 N4T belongs 0.127; to chain 5 N4H, 0.294; to chain 5 L8V, 0.958.
As for chain 5 L8C, the ratio to parent was found to be 0.957.
On the same count and under the same terms, to chain 5 L8E belongs 0.892; to chain 5 L8A, 1.08; to chain 5 L8P, 0.817.
chain 5 L8M: the ratio to parent amounted to 1.14.
Same read-out and setting: the value for chain 5 L8H was 1.16; that for chain 5 L8D was 0.803.
Regarding chain 5 L8Q, the ratio to parent amounted to 1.18.
Still for that read-out and setting: to chain 5 L8R belongs 1.13.
The same measure, in the same setting: to chain 5 E6N belongs 0.203; to chain 5 E6Q, 0.646; to chain 5 E6F, 0.0676.
Same read-out and setting: to chain 5 E6I belongs 0.449; to chain 5 E6G, 0.597; to chain 5 E6S, 0.469.
Regarding chain 5 E6D, the ratio to parent is 0.85.
On to chain 5 E6K, for which the ratio to parent was 0.795.
For the variant chain 5 E6L, the ratio to parent amounted to 0.0232.
Still for that read-out and setting: the value for chain 5 E6R was 0.329; that for chain 5 E6W was 0.0935.
Still for that read-out and setting: the value for chain 5 E6T was 0.702; that for chain 5 E6H was 0.73.
Regarding chain 5 E6V, the ratio to parent worked out at 0.409.
On the same count and under the same terms, the value for chain 5 E6C was 0.0497; that for chain 5 E6M was 0.725.
On to chain 5 E6A, for which the ratio to parent came to 0.437.
On the same count and under the same terms, to chain 5 E6P belongs 0.155.

In the next experiment the parent is B2. Nature of the experiment: % of reporter cells activated (NFAT-GFP), raw.
As for chain 5 I2A, the ratio to parent worked out at 0.958.
Regarding chain 5 I2K, the ratio to parent was found to be 0.859.
Still for that read-out and setting: to chain 5 I2P belongs 0.772; to chain 5 N4C, 0.0905; to chain 5 N4P, 0.00661.
For chain 5 N4R, the ratio to parent was 0.382.
Regarding chain 5 E6W, the ratio to parent was 0.0482.
As to chain 5 E6P, the ratio to parent worked out at 0.328.
Regarding chain 5 E6Q, the ratio to parent was 0.41.
chain 5 E6C: the ratio to parent turned out to be 0.47.
On the same count and under the same terms, to chain 5 E6T belongs 0.132.
Regarding chain 5 E6K, the ratio to parent was 0.623.
Still for that read-out and setting: to chain 5 E6R belongs 0.221.
On to chain 5 E6M, for which the ratio to parent came out at 0.324.
On the same count and under the same terms, to chain 5 S1E belongs 0.759; to chain 5 S1A, 0.847.
Same read-out and setting: the value for chain 5 L8T was 0.977; that for chain 5 L8W was 0.805.
On the same count and under the same terms, the value for chain 5 L8Y was 0.793.
Regarding chain 5 F5R, the ratio to parent was determined as 0.96.
Consider chain 5 F5H, for which the ratio to parent was determined as 0.944.
Still for that read-out and setting: to chain 5 K7W belongs 0.836; to chain 5 K7G, 0.457.
On to chain 5 K7L, for which the ratio to parent worked out at 0.159.
The same measure, in the same setting: to chain 5 K7Q belongs 0.212; to chain 5 K7F, 0.0871.
For chain 5 I3R, the ratio to parent was determined as 0.339.
chain 5 I3V: the ratio to parent worked out at 0.798.
Consider chain 5 I3E, for which the ratio to parent is 0.599.
Same read-out and setting: the value for chain 5 I3G was 0.362.
